Results published in paper PMC4335687 (Growth factors (Chur, Switzerland), 2014).

Molecular target: EphA2 ligand-binding domain, untagged (UniProt P29317)
Assay: SEC

EphA2 ligand-binding domain, untagged, sequence (P29317 24-206): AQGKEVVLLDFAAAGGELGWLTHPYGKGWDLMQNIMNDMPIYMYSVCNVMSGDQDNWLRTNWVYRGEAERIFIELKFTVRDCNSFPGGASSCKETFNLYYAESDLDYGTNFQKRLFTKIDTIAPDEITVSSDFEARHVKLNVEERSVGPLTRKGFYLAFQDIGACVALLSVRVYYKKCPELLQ

B1: D2 scFv-6xHis (monomeric anti-EphA2 single-chain antibody) (scFv, V domains shown)
VH: EVQLLESGGGLVQPGGSLRLSCAASGFTFSRYWMHWVRQAPGKGLEWVSSISPYDGETNYADSVKGRFTISRDNSKNTLYLQMNSLRAEDTAVYYCARISEWYNWAVDVFDYWGQGTLVTVSS
VL: EIVLTQSPGTLSLSPGERATLSCRASQSVSSSNLAWYQQKPGQAPRLLIYGASSRATGVPDRFSGSGSGTDFTLTISRLEPEDFAVYYCQQSSSYPWTFGQGTKVEIK
How did the “stoichiometry N” value turn out when B1 was run?
The value was 1.
